Data from US20150351390A1, “COMPOSITIONS AND METHODS FOR AUXIN-ANALOG CONJUGATION” (PIONEER HI-BRED INTERNATIONAL, INC., priority 2012, published 2015).

Key:
[1] = LC-MS assay of GH3 conjugation of IAA with Asp or Glu; type: biochemical; details: for kcat (hrs−1) IAA-Asp: conjugation of IAA with Asp by recombinant GH3 protein, IAA-Asp product by LC-MS; for kcat (hrs−1) IAA-Glu: conjugation of IAA with Glu by recombinant GH3 protein, IAA-Glu product by LC-MS
Summary of the method: (§1)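 Kinetic parameters come from Michaelis-Menten fits of initial velocities. Velocities reflect LC-MS quantification, against standards, of Asp or Glu conjugates formed by purified GH3 (44 to 164 μg/mL) with 5 mM ATP and MgCl2 at pH 8.0, 30° C.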

[2] = LC-MS assay of GH3 conjugation of 2,4-D with Asp or Glu; type: biochemical; details: 5 mM 2,4-D substrate; for kcat (hrs−1) 2,4-D-Asp: conjugation of 2,4-D with Asp by recombinant GH3 protein, 2,4-D-Asp product by LC-MS; for kcat (hrs−1) 2,4-D-Glu: conjugation of 2,4-D with Glu by recombinant GH3 protein, 2,4-D-Glu product by LC-MS
Summary of the method: as §1

B1: OsGH3-13: GH3 protein, accession EAY81150 (protein, listed as Oryza sativa)
chain: MTSTSSENALDHDHDHDASSPAPATATAAALPPMIPACDPHDGPACLELIEVLTTRAAAVQRRVLAEVLAMNTGTDYLRRFLGDEVAAAAGGEDELAAAFKERVPVVEYEDVKPYIERIANGAPSSLISSKPITELLTSSGTSGGQPKLMPATEEELDRKTFLYNLLVPVMNKYVEGLDEGRGMYLLFVKPEITTASGMVARPVLTSYYKSRHFRRRPDSPYTRYTSPDAAILCPDSRQSMYAQLLCGLARRGEVLRVGAVFASAFLRAVKFLEGHWRALCADIRAGRADPAVVTDAACRGAVDAVLAARADPDLADAIAAECGGASWRGIVRRLWPRTKYIDVIVTGSMAQYIPLLEFYGGGLPLVSTMYASSESYFGINLRPLDPPEEVVYTLLPNMCYYEFIKVEKDGDGEKVRDGEVVDLVGVEVGAYYELVVTTFTGLYRYRVGDILQVAGFHNAAPQFRFVHRRNVVLSVDTDKTSEDDLLRAVTAAKPLLDPLSCVLAEYTAYADTSSIPGHYVLFWELTPSPSPPPPPCHDDANDAADIGEDKDKVAHVMAACCAAVEAGLDSVYRRCRSRDRSIGPLEIRVVAPGAFDALMDMCVSHGSSVNQYKTPRCIKHPDAIAVLEQRVVGRFFSDAVPHWEPLKVDGAAAAPATGSDQ
- kcat (hrs−1) IAA-Asp [1]: 10.812 h⁻¹
- kcat (hrs−1) IAA-Glu [1]: 494.321 h⁻¹
- kcat (hrs−1) 2,4-D-Asp [2]: 0.639 h⁻¹
- kcat (hrs−1) 2,4-D-Glu [2]: 5.237 h⁻¹

B2: AIGH3-3: GH3 protein, accession XP_002880486 (protein, listed as Arabidopsis lyrata)
chain: MTVDLPLRSPMNYSPSDKDVKALRFIEEMIRNVDFVQNKVIREILRRNSETEYLKRFGLKGFTDRKAFKTKVPVVTYDDLKPEIQRIANGDRSMILSSHPITEFLTSSGTSAGERKLMPTIEEDMDRRQLLYSLLMPVMNLYVPGLDKGKALYFLFVKTESKTPGGLPARPVLTSYYKSEQFKRRPYDPYNVYTSPNEAILCPDSSQSMYTQMLCGLLMRHEVLRLGAVFASGLLRAIGFLQTNWKELANDISTGTLSSRISDPAIKESMSKILTKPDQELADFITSVCGQDNNWEGIITKIWPNTKYLDVIVTGAMAQYIPMLEYYSGGLPMACTMYASSESYFGINLKPMCKPSEVSYTIMPNMAYFEFLPHEVPTGKSELVELADVEVGKEYELVITTYAGLNRYRVGDILQVTGFYNSAPQFKFVRRKNVLLSIESDKTDEAELQKAVENASVLLGEQGNRVIEYTSYAETKTIPGHYVIYWELLVKDQTNPPNDEVMARCCLEMEESLNSVYRQSRVADKSIGPLEIRVVKNGTFEELMDYAISRGASINQYKVPRCVSFTPIMELLDSRVVSTHFSPALPHWSPERRC
- kcat (hrs−1) IAA-Asp [1]: 3315.262 h⁻¹
- kcat (hrs−1) IAA-Glu [1]: 71.865 h⁻¹
- kcat (hrs−1) 2,4-D-Asp [2]: 1.566 h⁻¹
- kcat (hrs−1) 2,4-D-Glu [2]: 0.172 h⁻¹

B3: SmXP_002973755: GH3 protein, accession XP_002973755 (protein, listed as Selaginella moellendorffii)
chain: MNLEHKEREKQALQFIEKVTSEAAEVQSAVLSAILERNAHTEYLKRHGLNGRTDKTSFRQCLPVITYEDLEPEIQRIANGDTSPILSAHPISEFLTSSGTSAGQRKLMPTISEEFERRCLLYSLLMPVMNQYLPGLDQGKGMYLFFIKSEAKTPGGLLARPVLTSYYKSRYFTERPYDPCNVYTSPNETVLCPDAHQSMYCQLLCGLLQRHEVLRMGAVFASGFLRAIRFLETHWRELCDDIRAGGLNELVVDAAARRAVLALMPRPDPALADDIAEQCRKESWAGIIARLWPNTKYIDVIVTGTMAQYIPTLDYYSGGLPLVCTMYASSECYFGINLQPLCPPSEVSYTLLPNMAYFEFLPIKPKSGKSKAPRVPDPSELVELVDVKMGHEYELVITTYAGLCRYRVGDILRVTGFHNSAPQFAFVCRKNVVLSIDSDKTGEEDLAKAVRSATAGIESSYGARLIEYTSYADTTTIPGHYVLFWELRSSSPIPKDVLEECCLAIEESLDSVYRQGRVSDRSIGPLEIKVVKPGTFDQLMDYALSRGASINQYKTPRCVKFTPIVELLNARVVSSYFSPRLPKWSPVRPQWANSNGVH
- kcat (hrs−1) IAA-Asp [1]: 220.320 h⁻¹
- kcat (hrs−1) IAA-Glu [1]: 9.285 h⁻¹
- kcat (hrs−1) 2,4-D-Asp [2]: 1.076 h⁻¹
- kcat (hrs−1) 2,4-D-Glu [2]: 0.431 h⁻¹

B4: AIGH3-1: GH3 protein, accession XP_002885948 (protein, listed as Arabidopsis lyrata)
chain: MAVDSNLSSPLGPPACEKDAKALRFIEEMTRNADTVQENLLAEILARNANTEYLRRFNLGGATDRDTFKTKIPVITYEDLQPEIQRIADGDRSPILSSHPISEFLTSSGTSAGERKLMPTIREELDRRQLLYSLLMPVMNLYVPGLDKGKGMYFLFVKSESKTPGGLPARPVLTSYYKSEHFRSRPYDPYNVYTSPNEAILCPDSFQSMYTQMLCGLLDRLSVLRVGAVFASGLLRAIRFLQLHWSRFANDIELGCLDSEITDPSIRQCMSGILKPDPVLAEFIRRECKSDNWERIITRIWPNTKYLDVIVTGAMAQYIPTLEYYSGGLPMACTMYASSECYFGLNLNPMSKPSEVSYTIMPNMAYFEFIPLGGTKAVELVDVKIGKEYELVVTTYAGLCRYRVGDILRVTGFHNSAPQFHFVRRKNVLLSIDSDKTDESELQKAVENASKILHEECGSRVAEYTSYADTSTIPGHYVLYWELLVRDGARQPSHETITRCCLEMEESLNSVYRQSRVADNSVGPLEIRVVRNGTFEELMDYAISRGASINQYKVPRCVNFTPIVELLDSRVVSAHFSPSLPHWTPERRRR
- kcat (hrs−1) IAA-Asp [1]: 436.828 h⁻¹
- kcat (hrs−1) IAA-Glu [1]: 14.961 h⁻¹
- kcat (hrs−1) 2,4-D-Asp [2]: 2.057 h⁻¹
- kcat (hrs−1) 2,4-D-Glu [2]: 0.525 h⁻¹

B5: ZmACL52529: GH3 protein, accession ACL52529 (protein)
chain: MSTSHARVKSDSNNGRTRTCDDGGSSGTSGGERKLMPAIADEMDRRSLLYSLLMPVMSQAVPGLDRGRCMYLYFVKAESRTPGGHPARPVLTSFYRSRHFLERPHDPYTVHTSPDEAVLCVDAYQSMYAQLLCGLVHRADVLRVGAVFASGFLRAIRFLEKHWQRLCRDLRRGALGAEVTDRSVRAAVARVLRADPALADAVEAECARPSWQGIIRRVWPGTKYIDVIVTGAMAQYIPTLEFYGGGLPLTCTMYASSESYFGINLNPMCKPSEVAYTLIPTMCYFEFLPLPQPGPGGTDDADPDHRDLVDLVDVKLGHEYELVVTTYSGLYRYRVGDVLRVAGFKNQAPMFKFLRRKNVVLSIDSDKTDEAELHAAVSGAVQHLAPFGASLVEYTSYADAGTIPGHYVLFWELRLRAGDVPVPVPASVFEDCCLAVEEALNSVYRQGRAADRSIGPLEIRVVSDGTFDRLMDYALARGASINQYKVPRCVHPGPVVELLDGRVQASYVSPKCPKWSPGGGKQWSSDAAAKKPAAAAGSNNGGGAVVA
modifications: Zea mays
- kcat (hrs−1) IAA-Asp [1]: 0.000 h⁻¹
- kcat (hrs−1) IAA-Glu [1]: 2.149 h⁻¹
- kcat (hrs−1) 2,4-D-Asp [2]: 0.000 h⁻¹
- kcat (hrs−1) 2,4-D-Glu [2]: 0.000 h⁻¹

B6: ZmACL54563: GH3 protein, accession ACL54563 (protein)
chain: MPEAPVVTMRDTAAAAPPATHRDLLEYIERVTAGAAQVQRRVLSEILAQNAPAEYLRRLGVSGAAPGAVEAFRRAAPLVTYEDILPDVLRIANGDTSPILSGKPIREFLTSSGTSGGERKLMPAIADEMDRRSLLYSLLMPVMSQAVPGLDRGRCMYLYFVKAGSRTPGGHPARPVLTSFYRSRHFLERPHDPYTVHTSPDEAVLCVDAYQSMYAQLLCGLVHRADVLRVGAVFASGFLRAIRFLEKHWQRLCRDLRRGALGAEVTDRSVRAAVARVLRADPALADAVEAECARPSWQGIIRRVWPGTKYIDVIVTGAMAQYIPTLEFYGGGLPLTCTMYASSESYFGINLNPMCKPSEVAYTLIPTMCYFEFLPLPQPGPGGTDDADPDHRDLVDLVDVKLGHEYELVVTTYSGLYRYRVGDVLRVAGFKNQAPMFKFLRRKNVVLSIDSDKTDEAELHAAVSGAVQHLAPFGASLVEYTSYADAGTIPGHYVLFWELRLRAGDVPVPVPASVFEDCCLAVEEALNSVYRQGRAADRSIGPLEIRVVSDGTFDRLMDYALARGASINQYKVPRCVHPGPVVELLDGRVQASYVSPKCPKWSPGGGKQWSSDAAAKKPAAAAGSNNGGGAVVA
modifications: Zea mays
- kcat (hrs−1) IAA-Asp [1]: 522.629 h⁻¹
- kcat (hrs−1) IAA-Glu [1]: 26.015 h⁻¹
- kcat (hrs−1) 2,4-D-Asp [2]: 3.255 h⁻¹
- kcat (hrs−1) 2,4-D-Glu [2]: 0.993 h⁻¹

B7: ZmACN32133: GH3 protein, accession ACN32133 (protein)
chain: MAPTTATAAAVGTKATALGVAACERDVEKLEFIEDKTRNFDAEQVRVLAEILARNNGAEYLRRHGMEGRTDRLAFKACVPVVTYEDLRPEIERIANGDRSNIISSHPITEFLTSSGTSAGERKLMPTIEDELNRRQMLYSLLMPVMNLYVPGLDKGKGLYFLFIKSETKTPGGLPARPVLTSYYKSDHFKHRPYDPYNVYTSPTAAILCTDSFQSMYSQMLCGLVARAEVLRVGAVFASGLLRAIRFLQLHWQELAHDLRTGTLSAKVTEPSIREAVAEVLRPDAGLADLVEAECGKESWEGIITRVWPNTKYLDVIVTGAMAQYIPTLKYYSGGLPMACTMYASSECYFGLNLRPMCDPSEVSYTIMPNMGYFELLPHDPDAVPPSRDDPPPRLLDLADAEVGRDYELVITTYAGLCRYRVGDILHVTGFHNAAPQFRFVRRKNVLLSVDSDKTDEAELQAAVERAARLLAPYDAAIAEYTSQADATTIPGHYVVYWELMVREGGASPDAAVFERCCLEMEEALNAVYRQGRNGDAIGPLEIRVVRGGTFEEVMDYAISRGASINQYKAPRCVSFGPIIELLNSRVVSSHFSPACPTYSPHKK
modifications: Zea mays
- kcat (hrs−1) IAA-Asp [1]: 876.059 h⁻¹
- kcat (hrs−1) IAA-Glu [1]: 83.547 h⁻¹
- kcat (hrs−1) 2,4-D-Asp [2]: 0.602 h⁻¹
- kcat (hrs−1) 2,4-D-Glu [2]: 0.241 h⁻¹
